Numbering of substitutions follows the chain as printed.
What was measured:
Assay in all cases: cell-based or functional assay
Recombinant human IL-4 [1] = biological target: T1, Recombinant human IL-4 (human, UniProt P05112 25-153)
T1 sequence (looked up): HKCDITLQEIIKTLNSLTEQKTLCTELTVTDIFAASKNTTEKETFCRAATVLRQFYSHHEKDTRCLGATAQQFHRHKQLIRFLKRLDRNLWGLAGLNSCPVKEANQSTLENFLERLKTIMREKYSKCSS

Recombinant human IL-4 [2] = biological target: T1, Recombinant human IL-4; remark: listed apart in the source
cynomolgus monkey IL-4 = biological target: T2, cynomolgus monkey IL-4 (cynomolgus monkey, UniProt P79339 25-153, limits assumed)
T2 sequence (looked up): T1 sequence (looked up) with E26K, V29I, F33L

Recombinant human IL-4 [3] = biological target: T1, Recombinant human IL-4; remark: listed apart in the source

B1: huTBTI3_2_1 (bispecific antibody)
VH: EVQLKESGPGLVAPGGSLSITCTVSGFSLTDSSINWVRQPPGKGLEWLGMIWGDGRIDYADALKSRLSISKDSSKSQVFLEMTSLRTDDTATYYCARDGYFPYAMDFWGQGTSVTVSSGGGGSGGGGSQVQLQQSGPELVKPGASVKISCKASGYSFTSYWIHWIKQRPGQGLEWIGMIDPSDGETRLNQRFQGRATLTVDESTSTAYMQLRSPTSEDSAVYYCTRLKEYGNYDSFYFDVWGAGTLVTVSS
VL: DIVLTQSPASLAVSLGQRATISCRASESVDSYGQSYMHWYQQKAGQPPKLLIYLASNLESGVPARFSGSGSRTDFTLTIDPVQAEDAATYYCQQNAEDSRTFGGGTKLEIKGGGGSGGGGSDIQMTQSPASLSVSVGDTITLTCHASQNIDVWLSWFQQKPGNIPKLLIYKASNLHTGVPSRFSGSGSGTGFTLTISSLQPEDIATYYCQQAHSYPFTFGGGTKLEIK
Recombinant human IL-4 [1]
  IC50, IL-4/IL-13-stimulated IL-6 release from LL97A IPF lung fibroblasts (combination of 15 ng/ml rhIL-13 plus 5 ng/ml rhIL-4): 7.8 nM
  IC50, IL-4/IL-13-stimulated eotaxin release from LL97A IPF lung fibroblasts (combination of 15 ng/ml rhIL-13 plus 5 ng/ml rhIL-4): 3.8 nM
  IC50, IL-4 and IL-13 induced LOX gene expression in IPF pulmonary fibroblasts (Taqman): 3 to 6 nM
Recombinant human IL-4 [2]
  IC50, inhibition of IL-4-induced Stat6 phosphorylation in human blood monocytes, donor 217: 0.78 nM
  IC50, inhibition of IL-4-induced Stat6 phosphorylation in human blood monocytes, donor 229: 0.73 nM
  IC50, inhibition of IL-4-induced Stat6 phosphorylation in human blood monocytes, donor 245: 1.32 nM
Cynomolgus monkey IL-4
  Mean IC50, inhibition of TF-1 cell proliferation induced by cynomolgus IL-4: 0.53 nM
Recombinant human IL-4 [3]
  Mean IC50, inhibition of TF-1 cell proliferation induced by human IL-4: 2.03 nM

Source: patent US20210221882A1 (Sanofi, published 2021)
